Key:
His-FOXM1 full-length = molecular target: T1, His-FOXM1 full-length (UniProt Q08050 1-763); assay: fluorescence polarization; EMSA and FP: 20 mM Tris-Cl, 50 mM KCl, 10% glycerol, 0.5 mM EDTA, 0.2 mM DTT, pH 7.6, 30 min on ice; EMSA 50 nM probe, FP 10 nM probe (50 nM in Fig. 1D legend); conditions: protein: recombinant, tags: C-terminal His6 (encoded by reverse primer S6)
T1 sequence: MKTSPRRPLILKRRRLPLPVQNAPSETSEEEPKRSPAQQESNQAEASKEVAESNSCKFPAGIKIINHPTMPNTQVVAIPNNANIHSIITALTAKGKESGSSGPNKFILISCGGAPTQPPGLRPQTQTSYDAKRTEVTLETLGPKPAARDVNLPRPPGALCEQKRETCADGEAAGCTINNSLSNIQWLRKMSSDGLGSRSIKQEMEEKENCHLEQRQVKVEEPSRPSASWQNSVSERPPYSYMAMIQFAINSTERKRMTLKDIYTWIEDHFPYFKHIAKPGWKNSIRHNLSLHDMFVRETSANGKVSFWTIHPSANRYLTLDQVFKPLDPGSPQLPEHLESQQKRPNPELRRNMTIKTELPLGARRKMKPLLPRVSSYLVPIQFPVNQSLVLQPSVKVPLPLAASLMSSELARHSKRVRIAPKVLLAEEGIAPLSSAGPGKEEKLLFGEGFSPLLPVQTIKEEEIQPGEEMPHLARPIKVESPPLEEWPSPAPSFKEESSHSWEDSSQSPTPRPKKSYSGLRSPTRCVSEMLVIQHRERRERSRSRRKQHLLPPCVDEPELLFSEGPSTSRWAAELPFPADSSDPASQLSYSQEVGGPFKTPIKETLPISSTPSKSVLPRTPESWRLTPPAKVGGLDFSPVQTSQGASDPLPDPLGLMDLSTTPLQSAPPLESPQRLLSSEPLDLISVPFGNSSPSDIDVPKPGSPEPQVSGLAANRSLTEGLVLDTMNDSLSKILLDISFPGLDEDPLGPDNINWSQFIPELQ

GST-FOXM1 DBD [1] = molecular target: T2, GST-FOXM1 DBD (UniProt Q08050 225-355); assay: as above; conditions: protein: recombinant, tags: N-terminal GST (pGEX-4T-1)
T2 sequence: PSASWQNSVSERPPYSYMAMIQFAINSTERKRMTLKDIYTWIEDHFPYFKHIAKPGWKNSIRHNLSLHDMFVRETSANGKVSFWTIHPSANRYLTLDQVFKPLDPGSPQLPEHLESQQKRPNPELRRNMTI

GST-FOXM1 DBD [2] = molecular target: T2, GST-FOXM1 DBD; assay: EMSA; EMSA and FP: 20 mM Tris-Cl, 50 mM KCl, 10% glycerol, 0.5 mM EDTA, 0.2 mM DTT, pH 7.6, 30 min on ice; EMSA 50 nM probe, FP 10 nM probe (50 nM in Fig. 1D legend); conditions: protein: recombinant; tags: N-terminal GST (pGEX-4T-1); label: 5'-ROX
[3] = label: 5'-ROX (hot) or none (cold)
[4] = label: 5'-FAM on forward strand (hot) or none (cold), blunt

B1: FOXM1 Apt (C1) (ssDNA)
DNA: TCACTTCACACCGCATCTCTACGTCCGGTTGCGCTTTCCTTT
Binder B1 has a Kd (His-FOXM1 full-length; [3]) of 172 ± 26.6 nM and a Kd (GST-FOXM1 DBD [1]; [3]) of 64.8 ± 25.8 nM.

B2: FOXM1 dsDNA probe (dsDNA)
DNA 1: TTTGTTTATTTGTTTGTTTATTTG
DNA 2: CAAATAAACAAACAAATAAACAAA
Binder B2 has a Kd (His-FOXM1 full-length; [4]) of 214 ± 249 nM and a Kd (GST-FOXM1 DBD [1]; [4]) of 543 ± 148 nM.

B3: M-FOXM1 Apt (ssDNA)
DNA: TCACTTCACACCGCATCTCTACGTCCGGTTGCGCTTTCCTTT
modifications: phosphorothioate internucleotide linkages
For B3, the Kd (His-FOXM1 full-length) was 63.9 ± 6.6 nM.

B4: Control Apt (ssDNA)
DNA: TCACTTAAAAAAAAAAAACTCATGAAAAAAAAAAAATCCTTT
B4: no binding (GST-FOXM1 DBD [2]).

From paper PMC5371818, “Suppression of FOXM1 Transcriptional Activities via a Single-Stranded DNA Aptamer Generated by SELEX”
